From patent publication US20060259987A1 (UNIVERSITY OF UTAH RESEARCH FOUNDATION, published 2006)

T1: human neutrophil elastase (human, UniProt P08246 30-247, limits assumed)
T1 sequence (looked up): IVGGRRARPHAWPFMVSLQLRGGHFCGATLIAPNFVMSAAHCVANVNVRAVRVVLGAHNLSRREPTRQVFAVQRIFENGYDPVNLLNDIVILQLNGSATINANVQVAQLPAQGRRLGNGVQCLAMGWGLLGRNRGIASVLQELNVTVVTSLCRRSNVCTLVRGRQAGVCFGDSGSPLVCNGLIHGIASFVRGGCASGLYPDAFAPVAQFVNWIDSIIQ

T2: human neutrophil cathepsin G (human, UniProt P08311 21-244)
T2 sequence (looked up): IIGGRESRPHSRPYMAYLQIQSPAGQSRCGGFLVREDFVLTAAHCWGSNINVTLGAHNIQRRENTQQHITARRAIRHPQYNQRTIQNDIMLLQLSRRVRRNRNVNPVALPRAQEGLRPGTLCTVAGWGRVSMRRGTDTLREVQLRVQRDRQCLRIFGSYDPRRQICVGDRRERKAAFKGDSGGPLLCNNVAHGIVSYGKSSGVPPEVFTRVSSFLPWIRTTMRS


Experiments:
Assay in all cases: cell-based or functional assay
human thrombin = human thrombin (human, UniProt P00734 328-622)
human factor Xa = human factor Xa (human, UniProt P00742 41-179; P00742 235-488, limits assumed)
[1] = biological target: T1, human neutrophil elastase
[2] = biological target: T2, human neutrophil cathepsin G

Chain of human factor Xa (P00742 41-179 limits assumed, chain 1 of 2): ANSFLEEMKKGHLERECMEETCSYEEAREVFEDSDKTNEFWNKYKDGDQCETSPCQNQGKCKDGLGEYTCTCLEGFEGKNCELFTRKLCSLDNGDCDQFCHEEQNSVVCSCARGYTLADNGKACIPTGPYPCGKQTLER
Chain of human factor Xa (P00742 235-488 limits assumed, chain 2 of 2): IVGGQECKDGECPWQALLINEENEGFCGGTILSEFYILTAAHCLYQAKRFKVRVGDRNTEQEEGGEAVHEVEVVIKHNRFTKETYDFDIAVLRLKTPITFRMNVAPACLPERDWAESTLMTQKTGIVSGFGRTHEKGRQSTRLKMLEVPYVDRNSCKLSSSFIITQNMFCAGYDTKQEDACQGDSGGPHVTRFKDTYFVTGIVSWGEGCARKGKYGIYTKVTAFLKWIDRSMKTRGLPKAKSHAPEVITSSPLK

IC50 IIa/UFH (HCA #5) (human thrombin) [nM]	IC50 IIa/UFH (HCA #6) (human thrombin) [nM]	rsd IIa, no add (CA #51, stg 1 conc 200) (human thrombin) [%]	IC50 fXa/UFH (HCA #5) (human factor Xa) [nM]	IC50 fXa/UFH (HCA #6) (human factor Xa) [nM]	rsd Xa, no add (CA #51, stg 1 conc 200) (human factor Xa) [%]	rsd IIa, HNE (CA #51, stg 1 conc 200) [1] [%]	rsd Xa, HNE (CA #51, stg 1 conc 200) [1] [%]	rsd IIa, catG (CA #51, stg 1 conc 200) [2] [%]	rsd Xa, catG (CA #51, stg 1 conc 200) [2] [%]	rsd IIa, no add (CA #52, stg 1 conc 200) (human thrombin) [%]	rsd Xa, no add (CA #52, stg 1 conc 200) (human factor Xa) [%]	rsd IIa, HNE (CA #52, stg 1 conc 200) [1] [%]	rsd Xa, HNE (CA #52, stg 1 conc 200) [1] [%]	rsd IIa, catG (CA #52, stg 1 conc 200) [2] [%]	rsd Xa, catG (CA #52, stg 1 conc 200) [2] [%]	Binder
150	140	2	15	19	1	3	1	3	-2	–	–	–	–	–	–	LEAQ.501 (other) SPVDICTAKPRDIPMNPMCIYRSPEKKATEDEGSEQKIPEATNRRVWELSKANSRFATTFYQHLADSKNDNDNIFLSPLSISTAFAMTKLGACNDTLQQLMEVFKFDTISEKTSDQIHFFFAKLNCRLYRKANKASKLVSANRLFGDKSLTFNETYQDISELVYGAKLQPLDFKENAEQSRAAINKWVSNKTEGRITDVIPSEAINELTVLVLVNTIYFKGLWKSKFSPENTRKELFYKADGESCSASMMYQEGKFRYRRVAEGTQVLELPFKGDDITMVLILPKPEKSLAKVEKELTPEVLQEWLDELEEMMLVVHMPRFRIEDGFSLKEQLQDMGLVDLFSPEKSKLPGIVAEGRDDLYVSDAFHKAFLEVNEEGSEAAASTALDAQGRSLNPNRVTFKANRPFLVFIREVPLNTIIFMGRVANPCVK
55	–	1	55	–	-2	2	-3	2	-2	–	–	–	–	–	–	LEAQ.507 (other) SPVDICTAKPRDIPMNPMCIYRSPEKKATEDEGSEQKIPEATNRRVWELSKANSRFATTFYQHLADSKNDNDNIFLSPLSISTAFAMTKLGACNDTLQQLMEVFKFDTISEKTSDQIHFFFAKLNCRLYRKANKASKLVSANRLFGDKSLTFNETYQDISELVYGAKLQPLDFKENAEQSRAAINKWVSNKTEGRITDVIPSEAINELTVLVLVNTIYFKGLWKSKFSPENTRKELFYKADGESCSASMMYQEGKFRYRRVAEGTQVLELPFKGDDITMVLILPKPEKSLAKVEKELTPEVLQEWLDELEEMMLVVHMPRFRIEDGFSLKEQLQDMGLVDLFSPEKSKLPGIVAEGRDDLYVSDAFHKAFLEVNEEGSEAAASTALRAQGRSLNPNRVTFKANRPFLVFIREVPLNTIIFMGRVANPCVK
18	–	0	16	–	1	0	1	0	-2	–	–	–	–	–	–	LEAQ.505 (other) SPVDICTAKPRDIPMNPMCIYRSPEKKATEDEGSEQKIPEATNRRVWELSKANSRFATTFYQHLADSKNDNDNIFLSPLSISTAFAMTKLGACNDTLQQLMEVFKFDTISEKTSDQIHFFFAKLNCRLYRKANKASKLVSANRLFGDKSLTFNETYQDISELVYGAKLQPLDFKENAEQSRAAINKWVSNKTEGRITDVIPSEAINELTVLVLVNTIYFKGLWKSKFSPENTRKELFYKADGESCSASMMYQEGKFRYRRVAEGTQVLELPFKGDDITMVLILPKPEKSLAKVEKELTPEVLQEWLDELEEMMLVVHMPRFRIEDGFSLKEQLQDMGLVDLFSPEKSKLPGIVAEGRDDLYVSDAFHKAFLEVNEEGSEAAASTALQAQGRSLNPNRVTFKANRPFLVFIREVPLNTIIFMGRVANPCVK
16	18	1	16	20	-1	1	-3	0	-1	1	3	52	10	6	1	LEAQ.509 (other) SPVDICTAKPRDIPMNPMCIYRSPEKKATEDEGSEQKIPEATNRRVWELSKANSRFATTFYQHLADSKNDNDNIFLSPLSISTAFAMTKLGACNDTLQQLMEVFKFDTISEKTSDQIHFFFAKLNCRLYRKANKASKLVSANRLFGDKSLTFNETYQDISELVYGAKLQPLDFKENAEQSRAAINKWVSNKTEGRITDVIPSEAINELTVLVLVNTIYFKGLWKSKFSPENTRKELFYKADGESCSASMMYQEGKFRYRRVAEGTQVLELPFKGDDITMVLILPKPEKSLAKVEKELTPEVLQEWLDELEEMMLVVHMPRFRIEDGFSLKEQLQDMGLVDLFSPEKSKLPGIVAEGRDDLYVSDAFHKAFLEVNEEGSEAAASTALVAQGRSLNPNRVTFKANRPFLVFIREVPLNTIIFMGRVANPCVK
–	110	–	–	18	–	–	–	–	–	5	2	3	2	3	1	LEAQ.515 (other) SPVDICTAKPRDIPMNPMCIYRSPEKKATEDEGSEQKIPEATNRRVWELSKANSRFATTFYQHLADSKNDNDNIFLSPLSISTAFAMTKLGACNDTLQQLMEVFKFDTISEKTSDQIHFFFAKLNCRLYRKANKASKLVSANRLFGDKSLTFNETYQDISELVYGAKLQPLDFKENAEQSRAAINKWVSNKTEGRITDVIPSEAINELTVLVLVNTIYFKGLWKSKFSPENTRKELFYKADGESCSASMMYQEGKFRYRRVAEGTQVLELPFKGDDITMVLILPKPEKSLAKVEKELTPEVLQEWLDELEEMMLVVHMPRFRIEDGFSLKEQLQDMGLVDLFSPEKSKLPGIVAEGRDDLYVSDAFHKAFLEVNEEGSEAAASTLLEAQGRSLNPNRVTFKANRPFLVFIREVPLNTIIFMGRVANPCVK
–	120	–	–	25	–	–	–	–	–	4	3	9	3	5	1	LEAQ.516 (other) SPVDICTAKPRDIPMNPMCIYRSPEKKATEDEGSEQKIPEATNRRVWELSKANSRFATTFYQHLADSKNDNDNIFLSPLSISTAFAMTKLGACNDTLQQLMEVFKFDTISEKTSDQIHFFFAKLNCRLYRKANKASKLVSANRLFGDKSLTFNETYQDISELVYGAKLQPLDFKENAEQSRAAINKWVSNKTEGRITDVIPSEAINELTVLVLVNTIYFKGLWKSKFSPENTRKELFYKADGESCSASMMYQEGKFRYRRVAEGTQVLELPFKGDDITMVLILPKPEKSLAKVEKELTPEVLQEWLDELEEMMLVVHMPRFRIEDGFSLKEQLQDMGLVDLFSPEKSKLPGIVAEGRDDLYVSDAFHKAFLEVNEEGSEAAASTFLEAQGRSLNPNRVTFKANRPFLVFIREVPLNTIIFMGRVANPCVK
